Source: the Human Domainome abundance scans (Beltran et al. 2025)
± gives the uncertainty stated by the source.

B1: Zinc finger homeobox protein 4, residues 2086 to 2141; numbered along this chain, Q86UP3 (parent)
chain: RPRTRITDDQLKILRAYFDINNSPSEEQIQEMAEKSGLSQKVIKHWFRNTLFKERQ

Variants of: B1
Assay: abundance fitness (aPCA) (normalised: wild type 0, dead -1); higher = more abundant; growth selection in yeast, the domain comes from the species named
Details: Homo sapiens

| Variant | abundance fitness |
| --- | --- |
| RPRTRITDDQLKILRAYFDINNSPSEEQIQEMAEKSGLSQKVIKHKFRNTLFKERQ [W46K] | -0.737 ± 0.12 |
| RPRTRITDDQLKILRAYFDINNSPSEEQIQEMAEKSGLSQKVIKHSFRNTLFKERQ [W46S] | -0.406 ± 0.075 |
| RPRTRITDDQLKILRAYFDINNSPSEEQIQEMAEKSGLSQKVIKHEFRNTLFKERQ [W46E] | -0.141 ± 0.095 |
| RPRTRITDDQLKILRAYFDINNSPSEEQIQEMAEKSGLSQKVIKHQFRNTLFKERQ [W46Q] | -0.483 ± 0.1 |
| RPRTRITDDQLKILRAYFDINNSPSEEQIQEMAEKSGLSQKVIKHTFRNTLFKERQ [W46T] | -0.203 ± 0.091 |
| RPRTRITDDQLKILRAYFDINNSPSEEQIQEMAEKSGLSQKVIKHPFRNTLFKERQ [W46P] | -0.698 ± 0.11 |
| RPRTRITDDQLKILRAYFDINNSPSEEQIQEMAEKSGLSQKVIKHAFRNTLFKERQ [W46A] | -0.313 ± 0.08 |
| RPRTRITDDQLKILRAYFDINNSPSEEQIQEMAEKSGLSQKVIKHNFRNTLFKERQ [W46N] | -0.762 ± 0.23 |
| RPRTRITDDQLKILRAYFDINNSPSEEQIQEMAEKSGLSQKVIKHDFRNTLFKERQ [W46D] | -0.297 ± 0.15 |
| RPRTRITDDQLKILRAYFDINNSPSEEQIQEMAEKSGLSQKVIKHIFRNTLFKERQ [W46I] | -0.331 ± 0.18 |
| RPRTRITDDQLKILRAYFDINNSPSEEQIQEMAEKSGLSQKVIKHGFRNTLFKERQ [W46G] | -0.655 ± 0.072 |
| RPRTRITDDQLKILRAYFDINNSPSEEQIQEMAEKSGLSQKVIKHVFRNTLFKERQ [W46V] | -0.221 ± 0.074 |
| RPRTRITDDQLKILRAYFDINNSPSEEQIQEMAEKSGLSQKVIKHMFRNTLFKERQ [W46M] | -0.376 ± 0.096 |
| RPRTRITDDQLKILRAYFDINNSPSEEQIQEMAEKSGLSQKVIKHRFRNTLFKERQ [W46R] | -0.516 ± 0.073 |
| RPRTRITDDQLKILRAYFDINNSPSEEQIQEMAEKSGLSQKVIKHFFRNTLFKERQ [W46F] | -0.237 ± 0.11 |
| RPRTRITDDQLKILRAYFDINNSPSEEQIQEMAEKSGLSQKVIKHYFRNTLFKERQ [W46Y] | 0.001 ± 0.16 |
| RPRTRITDDQLKILRAYFDINNSPSEEQIQEMAEKSGLSQKVIKHLFRNTLFKERQ [W46L] | -0.239 ± 0.069 |
| RPRTRITDDQLKILRAYFDINNSPSEEQIQEMAEKSGLSQKVIKHWFPNTLFKERQ [R48P] | -0.444 ± 0.096 |
| RPRTRITDDQLKILRAYFDINNSPSEEQIQEMAEKSGLSQKVIKHWFSNTLFKERQ [R48S] | -0.112 ± 0.077 |
| RPRTRITDDQLKILRAYFDINNSPSEEQIQEMAEKSGLSQKVIKHWFINTLFKERQ [R48I] | -0.164 ± 0.12 |
| RPRTRITDDQLKILRAYFDINNSPSEEQIQEMAEKSGLSQKVIKHWFDNTLFKERQ [R48D] | -0.09 ± 0.12 |
| RPRTRITDDQLKILRAYFDINNSPSEEQIQEMAEKSGLSQKVIKHWFQNTLFKERQ [R48Q] | 0.056 ± 0.11 |
| RPRTRITDDQLKILRAYFDINNSPSEEQIQEMAEKSGLSQKVIKHWFNNTLFKERQ [R48N] | 0.125 ± 0.13 |
| RPRTRITDDQLKILRAYFDINNSPSEEQIQEMAEKSGLSQKVIKHWFVNTLFKERQ [R48V] | -0.111 ± 0.079 |

| Variant | abundance fitness |
| --- | --- |
| RPRTRITDDQLKILRAYFDINNSPSEEQIQEMAEKSGLSQKVIKHWFMNTLFKERQ [R48M] | -0.095 ± 0.14 |
| RPRTRITDDQLKILRAYFDINNSPSEEQIQEMAEKSGLSQKVIKHWFCNTLFKERQ [R48C] | -0.056 ± 0.092 |
| RPRTRITDDQLKILRAYFDINNSPSEEQIQEMAEKSGLSQKVIKHWFANTLFKERQ [R48A] | -0.047 ± 0.077 |
| RPRTRITDDQLKILRAYFDINNSPSEEQIQEMAEKSGLSQKVIKHWFGNTLFKERQ [R48G] | -0.042 ± 0.069 |
| RPRTRITDDQLKILRAYFDINNSPSEEQIQEMAEKSGLSQKVIKHWFENTLFKERQ [R48E] | -0.153 ± 0.13 |
| RPRTRITDDQLKILRAYFDINNSPSEEQIQEMAEKSGLSQKVIKHWFYNTLFKERQ [R48Y] | -0.289 ± 0.14 |
| RPRTRITDDQLKILRAYFDINNSPSEEQIQEMAEKSGLSQKVIKHWFTNTLFKERQ [R48T] | 0.1 ± 0.1 |
| RPRTRITDDQLKILRAYFDINNSPSEEQIQEMAEKSGLSQKVIKHWFFNTLFKERQ [R48F] | -0.142 ± 0.1 |
| RPRTRITDDQLKILRAYFDINNSPSEEQIQEMAEKSGLSQKVIKHWFHNTLFKERQ [R48H] | 0.049 ± 0.11 |
| RPRTRITDDQLKILRAYFDINNSPSEEQIQEMAEKSGLSQKVIKHWFLNTLFKERQ [R48L] | -0.04 ± 0.077 |
| RPRTRITDDQLKILRAYFDINNSPSEEQIQEMAEKSGLSQKVIKHWFWNTLFKERQ [R48W] | -0.185 ± 0.084 |
| RPRTRITDDQLKILRAYFDINNSPSEEQIQEMAEKSGLSQKVIKHWFRSTLFKERQ [N49S] | -0.022 ± 0.078 |
| RPRTRITDDQLKILRAYFDINNSPSEEQIQEMAEKSGLSQKVIKHWFRETLFKERQ [N49E] | 0.079 ± 0.091 |
| RPRTRITDDQLKILRAYFDINNSPSEEQIQEMAEKSGLSQKVIKHWFRPTLFKERQ [N49P] | -0.383 ± 0.11 |
| RPRTRITDDQLKILRAYFDINNSPSEEQIQEMAEKSGLSQKVIKHWFRHTLFKERQ [N49H] | 0.141 ± 0.1 |
| RPRTRITDDQLKILRAYFDINNSPSEEQIQEMAEKSGLSQKVIKHWFRITLFKERQ [N49I] | 0.019 ± 0.12 |
| RPRTRITDDQLKILRAYFDINNSPSEEQIQEMAEKSGLSQKVIKHWFRTTLFKERQ [N49T] | 0.025 ± 0.089 |
| RPRTRITDDQLKILRAYFDINNSPSEEQIQEMAEKSGLSQKVIKHWFRATLFKERQ [N49A] | -0.023 ± 0.075 |
| RPRTRITDDQLKILRAYFDINNSPSEEQIQEMAEKSGLSQKVIKHWFRQTLFKERQ [N49Q] | -0.155 ± 0.11 |
| RPRTRITDDQLKILRAYFDINNSPSEEQIQEMAEKSGLSQKVIKHWFRYTLFKERQ [N49Y] | -0.169 ± 0.13 |
| RPRTRITDDQLKILRAYFDINNSPSEEQIQEMAEKSGLSQKVIKHWFRWTLFKERQ [N49W] | -0.12 ± 0.1 |
| RPRTRITDDQLKILRAYFDINNSPSEEQIQEMAEKSGLSQKVIKHWFRDTLFKERQ [N49D] | 0.085 ± 0.1 |
| RPRTRITDDQLKILRAYFDINNSPSEEQIQEMAEKSGLSQKVIKHWFRLTLFKERQ [N49L] | -0.172 ± 0.07 |
